This passage reports Kd results from patent US11267868 (dated 2022).

Like-named read-outs stand apart in the source and are kept apart here.

Holding throughout (experiment): SPR
On the technique in general: Surface plasmon resonance follows binding to a sensor surface in real time, without labels.

Experiment [1] addresses T1, FcgRIIIaV (human, UniProt P08637).
In experiment [2] the target is T2, FcgRIIb (human, UniProt P31994).
T2 chain: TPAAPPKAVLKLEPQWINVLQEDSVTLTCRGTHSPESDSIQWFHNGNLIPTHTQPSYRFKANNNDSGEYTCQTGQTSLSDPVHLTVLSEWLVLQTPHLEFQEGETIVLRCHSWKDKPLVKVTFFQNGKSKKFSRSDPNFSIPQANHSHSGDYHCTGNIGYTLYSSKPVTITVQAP

Experiment [3] concerns the target T3, FcgRIa (human, UniProt P12314).
T3 chain: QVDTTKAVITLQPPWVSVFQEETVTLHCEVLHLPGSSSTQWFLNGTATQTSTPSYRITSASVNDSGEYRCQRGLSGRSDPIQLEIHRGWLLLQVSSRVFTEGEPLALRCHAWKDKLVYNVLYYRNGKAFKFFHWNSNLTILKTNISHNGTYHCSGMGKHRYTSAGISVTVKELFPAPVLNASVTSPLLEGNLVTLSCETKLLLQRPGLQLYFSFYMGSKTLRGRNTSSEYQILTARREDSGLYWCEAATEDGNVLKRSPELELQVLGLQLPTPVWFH

Experiment [4] addresses T4, FcgRIIaH (human, UniProt P12318).
T4 chain: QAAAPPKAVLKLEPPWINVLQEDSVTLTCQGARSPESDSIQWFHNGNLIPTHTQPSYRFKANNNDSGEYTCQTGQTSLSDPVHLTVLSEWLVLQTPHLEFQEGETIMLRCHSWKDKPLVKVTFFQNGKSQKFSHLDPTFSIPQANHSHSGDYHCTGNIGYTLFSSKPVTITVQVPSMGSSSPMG

Experiment [5] has as its target T5, FcgRIIaR (human, UniProt P12318).
T5 chain: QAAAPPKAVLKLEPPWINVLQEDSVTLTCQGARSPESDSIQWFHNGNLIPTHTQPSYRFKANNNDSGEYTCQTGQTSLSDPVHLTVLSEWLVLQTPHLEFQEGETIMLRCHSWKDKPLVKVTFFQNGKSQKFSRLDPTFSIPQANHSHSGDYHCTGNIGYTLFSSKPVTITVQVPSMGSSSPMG

Experiment [6] deals with T3, FcgRIa.
Experiment [7] has as its target T4, FcgRIIaH.
For experiment [8], the target named is T5, FcgRIIaR.
The target of experiment [9] is T1, FcgRIIIaV. This is another data set of the same source.
Experiment [10] has as its target T2, FcgRIIb.

T1 sequence (P08637 17-208 F176V): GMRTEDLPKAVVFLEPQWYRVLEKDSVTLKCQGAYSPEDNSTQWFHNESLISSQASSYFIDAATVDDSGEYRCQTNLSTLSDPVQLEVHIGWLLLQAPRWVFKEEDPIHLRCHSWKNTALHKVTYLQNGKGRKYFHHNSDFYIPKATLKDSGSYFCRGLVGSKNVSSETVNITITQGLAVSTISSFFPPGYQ

B1: IL6R-P694/IL6R-L (antibody)
chain 1: QVQLQESGPGLVKPSETLSLTCAVSGHSISHDHAWSWVRQPPGEGLEWIGFISYSGITNYNPSLQGRVTISRDNSKNTLYLQMNSLRAEDTAVYYCARSLARTTAMDYWGEGTLVTVSSASTKGPSVFPLAPSSKSTSGGTAALGCLVKDYFPEPVTVSWNSGALTSGVHTFPAVLQSSGLYSLSSVVTVPSSSLGTQTYICNVNHKPSNTKVDKKVEPKSCDKTHTCPPCPAPDLLGGDSVFLFPPKPKDTLMISRTPEVTCVVIDVREEDGEVKFNWYVDGVEVHNAKTKPREEQENSTYRVVSVLTVLHQDWLNGKEYKCKVSNKALPAPIEKTISKAKGQPREPQVYTLPPSRDELTKNQVSLTCLVKGFYPSDIAVEWESNGQPENNYKTTPPVLDSDGSFFLYSKLTVDKSRWQQGNVFSCSVMHEALHNHYTQKSLSLSP
chain 2: not shown
For the molecule B1, the Kd – broadly, the equilibrium constant for the complex coming apart – in experiment [1] was determined as 47 µM; in [2], 2.8 µM; in [3], 0.41 µM; in [4] it was 200 µM; in experiment [5], 61 µM.

B2: IL6R-P712/IL6R-L (antibody)
chain 1: QVQLQESGPGLVKPSETLSLTCAVSGHSISHDHAWSWVRQPPGEGLEWIGFISYSGITNYNPSLQGRVTISRDNSKNTLYLQMNSLRAEDTAVYYCARSLARTTAMDYWGEGTLVTVSSASTKGPSVFPLAPSSKSTSGGTAALGCLVKDYFPEPVTVSWNSGALTSGVHTFPAVLQSSGLYSLSSVVTVPSSSLGTQTYICNVNHKPSNTKVDKKVEPKSCDKTHTCPPCPAPDLLGGDSVFLFPPKPKDTLMISRTPEVTCVVIDVRPEDGEVKFNWYVDGVEVHNAKTKPREEQENSTYRVVSVLTVLHQDWLNGKEYKCKVSNKALPAPIEKTISKAKGQPREPQVYTLPPSRDELTKNQVSLTCLVKGFYPSDIAVEWESNGQPENNYKTTPPVLDSDGSFFLYSKLTVDKSRWQQGNVFSCSVMHEALHNHYTQKSLSLSP
chain 2: not shown
As to B2, the Kd in [1] was 82 µM; in experiment [2], 3.4 µM; in experiment [3] it was 0.68 µM; in experiment [4], 300 µM; in experiment [5], 71 µM.

B3: IL6R-P702/IL6R-L (antibody)
chain 1: QVQLQESGPGLVKPSETLSLTCAVSGHSISHDHAWSWVRQPPGEGLEWIGFISYSGITNYNPSLQGRVTISRDNSKNTLYLQMNSLRAEDTAVYYCARSLARTTAMDYWGEGTLVTVSSASTKGPSVFPLAPSSKSTSGGTAALGCLVKDYFPEPVTVSWNSGALTSGVHTFPAVLQSSGLYSLSSVVTVPSSSLGTQTYICNVNHKPSNTKVDKKVEPKSCDKTHTCPPCPAPDLLGGDSVMLFPPKPKDTLMISRTPEVTCVVIDVREEDGEVKFNWYVDGVEVHNAKTKPREEQYNSTYRVVSVLTVLHQDWLNGKEYKCKVSNKALPAPIEKTISKAKGQPREPQVYTLPPSRDELTKNQVSLTCLVKGFYPSDIAVEWESNGQPENNYKTTPPVLDSDGSFFLYSKLTVDKSRWQQGNVFSCSVMHEALHNHYTQKSLSLSP
chain 2: not shown
As to B3, the Kd was found to be 44 µM in experiment [1]; 4 µM in experiment [2]; 0.57 µM in [3]; 170 µM in experiment [4]; 54 µM in experiment [5].

B4: IL6R-P625/IL6R-L (antibody)
chain 1: QVQLQESGPGLVKPSETLSLTCAVSGHSISHDHAWSWVRQPPGEGLEWIGFISYSGITNYNPSLQGRVTISRDNSKNTLYLQMNSLRAEDTAVYYCARSLARTTAMDYWGEGTLVTVSSASTKGPSVFPLAPSSKSTSGGTAALGCLVKDYFPEPVTVSWNSGALTSGVHTFPAVLQSSGLYSLSSVVTVPSSSLGTQTYICNVNHKPSNTKVDKKVEPKSCDKTHTCPPCPAPDKLGGDSVFLFPPKPKDTLMISRTPEVTCVVIDVAEEDGEVKFNWYVDGVEVHNAKTKPREEQYNSTYRVVSVLTVLHQDWLNGKEYKCKVSNKALPAPIEKTISKAKGQPREPQVYTLPPSRDELTKNQVSLTCLVKGFYPSDIAVEWESNGQPENNYKTTPPVLDSDGSFFLYSKLTVDKSRWQQGNVFSCSVMHEALHNHYTQKSLSLSP
chain 2: not shown
Consider B4, for which the Kd in experiment [6] stood at 0.5 µM; in experiment [7], 180 µM; in [8], 24 µM; in experiment [9], 66 µM; in experiment [10], 1.7 µM.

B5: IL6R-P629/IL6R-L (antibody)
chain 1: QVQLQESGPGLVKPSETLSLTCAVSGHSISHDHAWSWVRQPPGEGLEWIGFISYSGITNYNPSLQGRVTISRDNSKNTLYLQMNSLRAEDTAVYYCARSLARTTAMDYWGEGTLVTVSSASTKGPSVFPLAPSSKSTSGGTAALGCLVKDYFPEPVTVSWNSGALTSGVHTFPAVLQSSGLYSLSSVVTVPSSSLGTQTYICNVNHKPSNTKVDKKVEPKSCDKTHTCPPCPAPDLLGKDSVFLFPPKPKDTLMISRTPEVTCVVIDVAEEDGEVKFNWYVDGVEVHNAKTKPREEQYNSTYRVVSVLTVLHQDWLNGKEYKCKVSNKALPAPIEKTISKAKGQPREPQVYTLPPSRDELTKNQVSLTCLVKGFYPSDIAVEWESNGQPENNYKTTPPVLDSDGSFFLYSKLTVDKSRWQQGNVFSCSVMHEALHNHYTQKSLSLSP
chain 2: not shown
In the case of B5, the Kd in experiment [6] worked out at 0.0033 µM; in experiment [7], 100 µM; in [8] it was 27 µM; in experiment [9], 47 µM; in [10] it was 0.65 µM.

B6: IL6R-P636/IL6R-L (antibody)
chain 1: QVQLQESGPGLVKPSETLSLTCAVSGHSISHDHAWSWVRQPPGEGLEWIGFISYSGITNYNPSLQGRVTISRDNSKNTLYLQMNSLRAEDTAVYYCARSLARTTAMDYWGEGTLVTVSSASTKGPSVFPLAPSSKSTSGGTAALGCLVKDYFPEPVTVSWNSGALTSGVHTFPAVLQSSGLYSLSSVVTVPSSSLGTQTYICNVNHKPSNTKVDKKVEPKSCDKTHTCPPCPAPDLLGGDSVFLFPPKPKDTLMISRTPEVTCVVIDVREEDGEVKFNWYVDGVEVHNAKTKPREEQYNSTYRVVSVLTVLHQDWLNGKEYKCKVSNKALPAPIEKTISKAKGQPREPQVYTLPPSRDELTKNQVSLTCLVKGFYPSDIAVEWESNGQPENNYKTTPPVLDSDGSFFLYSKLTVDKSRWQQGNVFSCSVMHEALHNHYTQKSLSLSP
chain 2: not shown
On to B6, for which the Kd in [6] amounted to 0.46 µM; in experiment [7], 170 µM; in experiment [8], 54 µM; in experiment [9], 45 µM; in experiment [10], 2.9 µM.

B7: IL6R-P626/IL6R-L (antibody)
chain 1: QVQLQESGPGLVKPSETLSLTCAVSGHSISHDHAWSWVRQPPGEGLEWIGFISYSGITNYNPSLQGRVTISRDNSKNTLYLQMNSLRAEDTAVYYCARSLARTTAMDYWGEGTLVTVSSASTKGPSVFPLAPSSKSTSGGTAALGCLVKDYFPEPVTVSWNSGALTSGVHTFPAVLQSSGLYSLSSVVTVPSSSLGTQTYICNVNHKPSNTKVDKKVEPKSCDKTHTCPPCPAPDRLGGDSVFLFPPKPKDTLMISRTPEVTCVVIDVAEEDGEVKFNWYVDGVEVHNAKTKPREEQYNSTYRVVSVLTVLHQDWLNGKEYKCKVSNKALPAPIEKTISKAKGQPREPQVYTLPPSRDELTKNQVSLTCLVKGFYPSDIAVEWESNGQPENNYKTTPPVLDSDGSFFLYSKLTVDKSRWQQGNVFSCSVMHEALHNHYTQKSLSLSP
chain 2: not shown
For B7, the dissociation constant Kd stood at 0.74 µM in [6]; 200 µM in experiment [7]; 31 µM in experiment [8]; 75 µM in [9]; 2.7 µM in experiment [10].
